Data: publication PMC7003530 (Biochemistry, 2019)

Target: Factor-inhibiting HIF-1 (human, UniProt Q9NWT6 1-349)
Assay: other fluorescence titration

Kd: 92 ± 9 µM
Binder: H-DESGLPQLTSYDAEVNAPIQGSRNLLQGEELLRALDQVN-OH [39-residue CTAD peptide substrate, human HIF-1α 788–826 with C800A]
